2 molecules from patent US20260242485A1 (LEPU BIOPHARMA, published 2026) can be followed below.

Assay [1] deals with T1, Recombinant cyno CD16 ECD his tag protein (cynomolgus, UniProt Q8SPW2 17-208).
T1 construct: extracellular domain; Bought protein; also called cynoCD16-his; cynomolgus CD16-his
The assay is described as follows: ELISA, plate-coated his-tagged antigen 2 ug/mL. The method, then:
(§1) In order to determine the binding ability of the chimeric Abs to human CD16A protein, ELISA-based binding assay was performed as followed. […] The mixture was incubated for 1 hour at room temperature (RT). The primary antibody was recognized by a detective antibody against human IgG Fc which was conjugated with horseradish peroxidase (HRP) (Jackson Immuno, Cat. No. 109-035-008). Tetramethylbenzidine (TMB), a substrate of HRP, was added to the wells to visualize the binding signal. After sufficient color development, stop solution was added to the wells. The absorbance of the signal was detected at 450 nm with Envision multilabel plate readers (PerkinElemer). The graph and statistics analysis were generated with four-parameter nonlinear regression curve fit in Graphpad Prism 9 software.
(§2) In order to determine the cross reactivity of the chimeric Abs to cynomolgus CD16, ELISA binding assay was performed as described above. Recombinant cyno CD16 ECD his tag protein (cynoCD16-his, Acro Bio, Cat. No. FC6-C52H9) was used as the coating antigen at 2 μg/mL.
(In general: An ELISA detects its analyte on a solid surface through an enzyme-linked reagent.)

Assay [2] deals with T2, hCD16A-158V-his protein (human, UniProt P08637 17-208).
T2 construct: extracellular domain; Bought protein; also called human CD16A-158V-his; Human CD16A-158V (protein)
The assay is described as follows: ELISA, plate-coated his-tagged antigen 2 ug/mL. The method, then: as §1, §2

In assay [3] the target is T3, hCD16A-158F-his protein (human, UniProt P08637 17-208).
T3 construct: Bought protein
In words: ELISA, plate-coated his-tagged antigen 2 ug/mL. The protocol: as §1, §2

Assay [4] addresses T4, human CD16A-158V expressed on CHO-K1 cells (human, UniProt P08637 17-254).
T4 construct: whole, on cells; also called hCD16A-158V; CHO-K1-hCD16A-158V
The assay is described as follows: flow cytometry on antigen-expressing CHO-K1 cells. The protocol:
(§3) In order to evaluate the binding activity of the chimeric mAbs to human CD16A expressed on cells, cell-based binding assay was employed as followed. […] The antibody dilutions were incubated with 1×10⁵ indicated cells in the 96-well microplate for one hour at 4° C. The antibodies binding to the antigen on the cell surface were detected with PE fluorophore-conjugated anti-human IgG Fc secondary antibodies (ThermoFisher scientific, Cat. No. 12-4998-82) at a dilution rate of 1:1000. Cells were analyzed by flow cytometer LSRFortessa Cell Analyzer (BD Biosciences). Data were analyzed with Flowjo 10.0 software. The graph and statistics analysis were generated with four-parameter nonlinear regression curve fit in Graphpad Prism 9 software.
(§4) CHO-K1 cells stably expressing cynomolgus CD16 were used in the following test.
(In general: In flow cytometry, cells or beads pass a laser one at a time.)

Assay [5] deals with T5, human CD16A-158F expressed on CHO-K1 cells (human, UniProt P08637 17-254).
T5 construct: whole, on cells
In words: flow cytometry on antigen-expressing CHO-K1 cells. The protocol: as §3, §4

Assay [6] has as its target T6, cynomolgus CD16 expressed on CHO-K1 cells (cynomolgus, UniProt Q8SPW2 17-254).
T6 construct: whole, on cells; also called cyno CD16; CHO-K1-cynoCD16
In words: flow cytometry on antigen-expressing CHO-K1 cells. The method, then:
as §3, §4

For assay [7], the target named is T7, human CD16B-NA1 ECD his tag protein (human, UniProt O75015 17-200).
T7 construct: extracellular domain; Bought protein; also called hCD16B-NA1-his; hCD16B-NA1 protein
The assay is described as follows: ELISA, hCD16B-NA1-his coated at 2 ug/mL, OD450. The protocol: as §1
In order to determine the binding ability of the chimeric Abs to human CD16B protein, ELISA binding assay was performed as previously described. Three spliced isoforms of CD16B including human CD16B-NA1 ECD his tag protein (hCD16B-NA1-his, Acro Bio, Cat: No. CDB-H5227), human CD16B-NA2 ECD his tag protein (hCD16B-NA2-his, Acro Bio, Cat: No. CDB-H82Ea) and human CD16B-SH-his protein, were used as the coating antigens at 2 μg/mL.

Assay [8] concerns the target T8, human CD16B-NA1 expressed on CHO-K1 cells (human, UniProt O75015 17-200).
T8 construct: whole, on cells; also called hCD16B-NA1; CHO-K1-hCD16B-NA1
In words: flow cytometry, CHO-K1-hCD16B-NA1 cells, geometric mean. The protocol:
as §3
To exclude the non-specific binding of the CD16A chimeric antibody to human CD16B and CD32B expressed on cells, cell-based binding assay was performed as described above. Firstly, CHO-K1 cells were stably transferred with one human CD16B spliced isoform hCD16B-NA1 and human CD32B. Then, the cells were incubated with the indicated concentrations of CD16A chimeric antibodies.

The target in assay [9] is T5, human CD16A-158F expressed on CHO-K1 …. The assay is described as follows: flow cytometry, CHO-K1-hCD16A-158F cells, geometric mean. The protocol:
as §3
The assay was performed following the protocol described above.

The target is the same in assay [10]. The assay is described as above. The source holds these as a separate data set.
Assay [11] deals with T9, human GPC3 on HepG2 cells (human, UniProt P51654 25-554).
T9 construct: whole, on cells; also called GPC3-positive HepG2 cells
The assay is described as follows: flow cytometry, HepG2 cells (GPC3 positive), geometric mean.

Assay [12] concerns the target T6, cynomolgus CD16 expressed on CHO-K1 …. The assay is described as follows: flow cytometry, CHO-K1-cyno CD16 cells, Alexa Fluor 647 anti-human IgG Fc, geometric mean. The method, then:
as §3
(§5) The assay was performed following the protocol described above. The antibodies binding to the antigen on the cell surface were detected with Alexa Fluor® 647 AffiniPure™ F(ab′)₂ fragment goat anti-human IgG Fcγ fragment specific secondary antibody (Jackson Immuno Research, Cat. No. 109-606-098) at a dilution rate of 1:2000.

For assay [13], the target named is T4, human CD16A-158V expressed on CHO-K1 …. The assay is described as follows: flow cytometry, CHO-K1-hCD16A-158V cells, Alexa Fluor 647 anti-human IgG Fc, geometric mean. The protocol: as §3, §5
The target in assay [14] is T5, human CD16A-158F expressed on CHO-K1 …. In words: flow cytometry, CHO-K1-hCD16A-158F cells, Alexa Fluor 647 anti-human IgG Fc, geometric mean. The protocol: as §3, §5

T4 sequence (P08637 17-254 F176V): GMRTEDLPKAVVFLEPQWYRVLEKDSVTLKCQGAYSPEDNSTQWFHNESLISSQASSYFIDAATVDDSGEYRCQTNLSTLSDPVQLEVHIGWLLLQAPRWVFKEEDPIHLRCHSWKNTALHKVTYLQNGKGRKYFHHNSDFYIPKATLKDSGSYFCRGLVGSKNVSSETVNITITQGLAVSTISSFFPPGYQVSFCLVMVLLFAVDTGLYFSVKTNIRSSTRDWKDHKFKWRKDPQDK
T6 sequence (Q8SPW2 17-254): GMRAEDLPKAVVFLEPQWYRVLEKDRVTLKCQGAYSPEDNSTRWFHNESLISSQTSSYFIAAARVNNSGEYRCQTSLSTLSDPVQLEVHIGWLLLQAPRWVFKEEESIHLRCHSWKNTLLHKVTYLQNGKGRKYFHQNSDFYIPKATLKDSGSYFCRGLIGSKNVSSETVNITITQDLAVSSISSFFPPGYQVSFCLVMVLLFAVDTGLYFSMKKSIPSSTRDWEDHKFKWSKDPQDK
T5 sequence (P08637 17-254): as the sequence (P08637 17-254 F176V) above, with V160F counted along it
T8 sequence (O75015 other isoform, or with tags, fused parts or gaps): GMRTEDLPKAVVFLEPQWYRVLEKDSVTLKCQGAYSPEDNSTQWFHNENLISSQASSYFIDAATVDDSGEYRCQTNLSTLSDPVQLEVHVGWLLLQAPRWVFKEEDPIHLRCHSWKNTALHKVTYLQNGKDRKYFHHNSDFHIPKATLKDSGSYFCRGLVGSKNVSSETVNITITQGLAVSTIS
T7 sequence (O75015 other isoform, or with tags, fused parts or gaps limits assumed): as the sequence (O75015 other isoform, or with tags, fused parts or gaps) above
T1 sequence (Q8SPW2 17-208): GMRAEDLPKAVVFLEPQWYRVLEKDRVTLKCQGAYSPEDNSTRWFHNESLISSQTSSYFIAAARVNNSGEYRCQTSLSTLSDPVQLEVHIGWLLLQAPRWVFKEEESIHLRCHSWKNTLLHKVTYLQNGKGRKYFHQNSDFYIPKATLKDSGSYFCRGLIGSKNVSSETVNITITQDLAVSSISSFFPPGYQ
T2 sequence (P08637 17-208 F176V): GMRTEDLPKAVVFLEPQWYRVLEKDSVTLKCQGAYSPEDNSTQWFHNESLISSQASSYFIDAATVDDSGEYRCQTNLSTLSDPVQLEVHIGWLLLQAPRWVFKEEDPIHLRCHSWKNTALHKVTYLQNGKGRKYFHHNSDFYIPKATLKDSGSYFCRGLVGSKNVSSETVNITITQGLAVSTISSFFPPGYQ
T9 sequence (P51654 25-554 limits assumed): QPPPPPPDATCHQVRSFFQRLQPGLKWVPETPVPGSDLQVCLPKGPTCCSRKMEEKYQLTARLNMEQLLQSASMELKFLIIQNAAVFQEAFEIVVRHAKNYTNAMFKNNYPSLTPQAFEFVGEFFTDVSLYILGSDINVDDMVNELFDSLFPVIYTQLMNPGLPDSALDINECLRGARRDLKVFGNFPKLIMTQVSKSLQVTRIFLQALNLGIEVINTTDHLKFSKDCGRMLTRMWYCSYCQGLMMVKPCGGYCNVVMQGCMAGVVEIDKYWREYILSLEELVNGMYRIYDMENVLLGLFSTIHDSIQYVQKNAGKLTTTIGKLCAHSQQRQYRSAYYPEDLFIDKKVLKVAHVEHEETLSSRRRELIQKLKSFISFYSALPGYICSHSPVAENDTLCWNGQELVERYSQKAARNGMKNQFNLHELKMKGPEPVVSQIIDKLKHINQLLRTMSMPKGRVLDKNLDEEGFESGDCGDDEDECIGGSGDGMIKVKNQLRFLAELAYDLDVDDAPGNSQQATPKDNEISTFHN
T3 sequence (P08637 17-208 limits assumed): as the sequence (P08637 17-208 F176V) above, with V160F counted along it

B1: P2C47-hIgG1 LALAPG (antibody)
heavy: QVQLVQSGAEVKKPGESLKVSCKASGYTFTSYYMHWVRQAPGQGLEWMGAIEPMYGSTSYAQKFQGRVTMTRDTSTSTVYMELSSLRSEDTAVYYCARGSAYYYDFADYWGQGTLVTVSSASTKGPSVFPLAPSSKSTSGGTAALGCLVKDYFPEPVTVSWNSGALTSGVHTFPAVLQSSGLYSLSSVVTVPSSSLGTQTYICNVNHKPSNTKVDKKVEPKSCDKTHTCPPCPAPEAAGGPSVFLFPPKPKDTLMISRTPEVTCVVVDVSHEDPEVKFNWYVDGVEVHNAKTKPREEQYNSTYRVVSVLTVLHQDWLNGKEYKCKVSNKALGAPIEKTISKAKGQPREPQVYTLPPSREEMTKNQVSLTCLVKGFYPSDIAVEWESNGQPENNYKTTPPVLDSDGSFFLYSKLTVDKSRWQQGNVFSCSVMHEALHNHYTQKSLSLSPGK
light: SYVLTQPSSVSVAPGQTATISCGGHNIGSKNVHWYQQRPGQSPVLVIYQDNKRPSGIPERFSGSNSGNTATLTISGTQAMDEADYYCQVWDNYSVLFGGGTKLTVLGQPKANPTVTLFPPSSEELQANKATLVCLISDFYPGAVTVAWKADGSPVKAGVETTKPSKQSNNKYAASSYLSLTPEQWKSHRSYSCQVTHEGSTVEKTVAPTECS
notes: also called benchmark antibody P2C47
For B1, the EC50 in assay [1] amounted to 0.73 nM; in [2], 0.12 nM; in assay [3] it was 0.32 nM; in assay [4] it was 0.61 nM; in assay [5], 0.57 nM; in assay [6] it was 1.74 nM. For the same molecule, the binding result is reported as “no binding (tested: 20 nM)” in assay [7], “no binding (tested: 100 nM)” in [8] and “no binding (tested: 100 nM)” in assay [11]. In addition, the “EC50 (read off the curve)” value in [9] was roughly 0.4 nM; in [10] it was roughly 0.5 nM; in assay [12] it was roughly 1 nM; in [13] it was roughly 0.4 nM; in assay [14], roughly 0.4 nM.

B2: 45H6E8-hIgG1 LALAPG (antibody)
heavy: EVQLQQSGAELVRSGASVKLSCTASGFNIKDYYMQWVKQRPEQGLEWIGWIDPENGDTEYAPKFQGKATMTADTSSNTAYLQLSSLTSEDTAVYYCTTGGNYVDWGQGTTLTVSSASTKGPSVFPLAPSSKSTSGGTAALGCLVKDYFPEPVTVSWNSGALTSGVHTFPAVLQSSGLYSLSSVVTVPSSSLGTQTYICNVNHKPSNTKVDKKVEPKSCDKTHTCPPCPAPEAAGGPSVFLFPPKPKDTLMISRTPEVTCVVVDVSHEDPEVKFNWYVDGVEVHNAKTKPREEQYNSTYRVVSVLTVLHQDWLNGKEYKCKVSNKALGAPIEKTISKAKGQPREPQVYTLPPSREEMTKNQVSLTCLVKGFYPSDIAVEWESNGQPENNYKTTPPVLDSDGSFFLYSKLTVDKSRWQQGNVFSCSVMHEALHNHYTQKSLSLSPGK
light: DIVMTQSQKFMSTSVGDRVSITCKASQNVGTAVAWYQQKPGQSPKLLIYSASNRYTGVPDRFTGSGSGTDFTLTISNMQSEDLADYFCQQYSSYPLLTFGAGTNLELKRTVAAPSVFIFPPSDEQLKSGTASVVCLLNNFYPREAKVQWKVDNALQSGNSQESVTEQDSKDSTYSLSSTLTLSKADYEKHKVYACEVTHQGLSSPVTKSFNRGEC
notes: also called 45H6E8 chimeric antibody
For the molecule B2, the concentration giving a half-maximal response (EC50) is 0.68 nM in [1]; 0.1 nM in assay [2]; 0.33 nM in assay [3]; 0.36 nM in assay [4]; 0.4 nM in [5]; 1.74 nM in assay [6]. Besides, the binding result in [7] is “no binding (tested: 20 nM)”; in assay [8] it was “no binding (tested: 100 nM)”; in assay [11] it was “no binding (tested: 100 nM)”. The “EC50 (read off the curve)” value in assay [9] is roughly 0.4 nM; in assay [10], roughly 0.5 nM; in assay [12], roughly 1 nM; in [13], roughly 0.4 nM; in assay [14], roughly 0.4 nM.

The term EC50 denotes the concentration needed to bring the measured effect to its halfway point. One may read the EC50 (read off the curve) as the midpoint of the concentration-response curve. The low end stands for an effect from little substance, the high end for a need for much substance.
